# Experimental data from patent publication US12648985B2, “Immunotherapeutic for prostate cancer treatment” (Hexamer Therapeutics, Inc., priority 2019, dated 2026).
# “Also recorded” adds a separate entry of the source.
# Key:
# GnRH = assay: anti-GnRH IgG endpoint titers by ELISA in sera of immunized mice; assay type: in vivo; settings: BALB/cJ mice
# Procedure: B-cell function: Standard ELISA was used to measure therapeutic efficacy by GnRH-specific antibody titer in the collected mouse sera. ELISA plates were coated with GnRH-BSA conjugate and 8 sequential 10-fold dilutions (from 1:10^3 to 1:10^10) of sera in blocking buffer were made and added to the ELISA plate wells. An HRP-labeled anti-mouse secondary antibody was added and the plates developed with a colorimetric substrate and measured in an ELISA plate reader. Data were plotted, curve fitted, and statistically analyzed using Prism Graph Pad software for calculating mid- and end-point titers.
# (§1) Constructs 1-7 (1 and 10 ug) were adjuvanted with a monophosphoryl lipid-A/squalene-based adjuvant and injected into BALB/cJ mice. Each construct is injected into 5 mice (n=5 per construct). After 14, 28, and 42 days, mouse sera were obtained to measure anti-GnRH IgG endpoint titers by ELISA using dilutions from […] (sequential 10-fold dilutions). […] Testosterone was extracted from the sera, derivatized, and separated and quantified by LC-MS/MS.
# The solid line in the group of dots is the geometric mean and the error bars are the geometric standard deviation. Two doses were chosen for this study: 1 and 10 ug. IgG titers reached maximum levels 42 days following prime immunization.
# testosterone = assay: serum testosterone by LC-MS/MS in immunized mice; assay type: in vivo; settings: BALB/cJ mice
# Procedure: as §1
# A castrate T level is shown by the dotted line.
Molecule,"anti-GnRH IgG antibody titers, rank among the constructs (GnRH; FIG. 3)","anti-GnRH IgG antibody titers, 1 ug versus 10 ug dose (GnRH; 1 and 10 ug, monophosphoryl lipid-A/squalene-based adjuvant, FIG. 3)","anti-GnRH IgG antibody titers, rank among the constructs (GnRH; FIG. 3, listed as TCE3-Hex-TCE4+GnRH)",inducing IgG titers compared with KLH+GnRH (positive control) (GnRH; FIGS. 4-6),"anti-GnRH IgG titers, d28 versus d42 (GnRH; days post-prime immunization, FIG. 3)",inducing castrate levels of T compared with KLH+GnRH (positive control) (testosterone; FIGS. 4-6),"testosterone (T) levels induced (testosterone; by d42, FIG. 6)"
"construct 5: scaffold peptide (SEQ ID NO: 67): GnRH peptide and TCE2 at N- and C-terminus of the monomeric peptide, self-assembled (also: self-assembled) GQHWSYGLRPGGDIRSIGKEIRSIGREIKSIGREIRSIGRGPGPFNNFTVSFWLRVPRVSASHLEQY",highest titers or induced high titers sooner,–,–,–,–,–,–
"construct 2: GnRH peptide immunogen (SEQ ID NO: 70) conjugated to the TCE3-Hex-TCE4 hexamer scaffold peptide (SEQ ID NO: 68) (conjugate, conjugated; GnRH; TCE3_Hex_TCE4) chain 1: QHWSYGLRPGDGEGC chain 2: GQEAFSHIRIPLPHDIRSIGKEIRSIGREIRSIGKEIRSIGREFQDAYNAAGGHNAVF",–,equal antibody titers at both 1 and 10 ug,highest antibody titers; also recorded: highest titers or induced high titers sooner,about the same as KLH+GnRH,almost equal levels between d28 and d42,about the same as KLH+GnRH,castrate levels of T
